The values below come from the Immune Epitope Database (IEDB).

Bounds are passed on as bounds.

The target of one assay is HLA-A*11:01. Description: IEDB peptide-MHC binding, purified MHC/competitive/radioactivity; filed as Kd, often an IC50 or EC50 that approximates it; ≥ and ≤ were set here for values at or beyond the usual limits of such assays.
A further assay has as its target HLA-A*24:02. Described as above.
The target in the next assay is HLA-A*01:01. Described as above.
Assay [1] addresses HLA-A*03:01. The description is as above.
Assay [2] has as its target HLA-A*02:01. Described as above.
For assay [3], the target named is HLA-A*02:01. The assay can be described thus: IEDB peptide-MHC binding, purified MHC/competitive/radioactivity; ≥ and ≤ were set here for values at or beyond the usual limits of such assays. The conditions noted are these: source organism: Hepatitis B virus subtype adyw.
Assay [4] concerns the target HLA-A*03:01. The description is as above. The conditions noted are these: source organism: Human immunodeficiency virus type 1 (NDK ISOLATE).
The mark [5] stands for this setting: source organism: Human immunodeficiency virus type 1 (NDK ISOLATE).
Where [6] appears, read: source organism: Hepatitis B virus subtype adyw.
Setting [7] is: source organism: Plasmodium falciparum.

ILKEPVHGV: the Kd with HLA-A*11:01 (setting [5]), with HLA-A*24:02 (setting [5]), with HLA-A*01:01 (setting [5]) and in the assay with HLA-A*03:01 [1] (setting [5]) was at least 5 µM in each case.

As for EADPTGHSY, the Kd with HLA-A*11:01 (source organism: Homo sapiens) and with HLA-A*24:02 (source organism: Homo sapiens) was at least 5 µM throughout.

For the sequence FLPSDFFP, the Kd (usually a measure of binding affinity in units of concentration) with HLA-A*02:01 [2] (setting [6]) was at least 50 µM.

WLSLLVPFV: in the assay with HLA-A*01:01 (setting [6]), the Kd is at least 5 µM.

Consider FLPSDFFPS, for which the IC50 – broadly, the concentration needed to halve the response being measured – with HLA-A*02:01 [3] is 0.117 µM.

For the sequence SFLPSDFFPSV, in the assay with HLA-A*02:01 [2] (setting [6]), the Kd was at least 50 µM.

As to KRYEGLTQR, the Kd with HLA-A*11:01 (source organism: Homo sapiens), with HLA-A*24:02 (source organism: Homo sapiens), with HLA-A*01:01 (source organism: Homo sapiens), in the assay with HLA-A*03:01 [1] (source organism: Homo sapiens) and in the assay with HLA-A*02:01 [2] (source organism: Homo sapiens) was at least 5 µM each time.

As for LLGRNSFEV, the Kd with HLA-A*11:01 (source organism: Homo sapiens), with HLA-A*24:02 (source organism: Homo sapiens), with HLA-A*01:01 (source organism: Homo sapiens) and in the assay with HLA-A*03:01 [1] (source organism: Homo sapiens) was at least 5 µM throughout.

In the case of PSDFFPSV, the Kd in the assay with HLA-A*02:01 [2] (setting [6]) was at least 50 µM.

Consider ELRSRYWAI, for which the Kd with HLA-A*24:02 (source organism: Influenza A virus (A/Puerto Rico/8/1934(H1N1))) is at least 5 µM.

With KPIVQYDNF, the Kd in the assay with HLA-A*11:01 (setting [7]), with HLA-A*24:02 (setting [7]), with HLA-A*01:01 (setting [7]), with HLA-A*03:01 [1] (setting [7]) and in the assay with HLA-A*02:01 [2] (setting [7]) was at least 5 µM each time.

Take RRYQKSTEL: the Kd in the assay with HLA-A*11:01 (source organism: Homo sapiens), in the assay with HLA-A*24:02 (source organism: Homo sapiens), with HLA-A*01:01 (source organism: Homo sapiens), with HLA-A*03:01 [1] (source organism: Homo sapiens) and in the assay with HLA-A*02:01 [2] (source organism: Homo sapiens) was at least 5 µM each time.

With FLPSDFFPSVR, the IC50 in the assay with HLA-A*02:01 [3] stood at 0.305 µM.

On to AVDLSHFLK, for which the Kd with HLA-A*24:02 (setting [5]), with HLA-A*01:01 (setting [5]) and with HLA-A*02:01 [2] (setting [5]) was at least 5 µM each time. In addition, the IC50 with HLA-A*03:01 [4] is 0.149 µM.
